Earlier results, collected in patent US11608532B2, “Precision medicine for treating and preventing suicidality” (Indiana University Research and Technology Corporation, priority 2017, dated 2023).
Read-outs that look alike come from different tables or passages of the source.

Tested on: individual top biomarkers for suicidality

B1: siltuximab (antibody, chains of the INN, looked up, V domains shown)
VH: EVQLVESGGKLLKPGGSLKLSCAASGFTFSSFAMSWFRQSPEKRLEWVAEISSGGSYTYYPDTVTGRFTISRDNAKNTLYLEMSSLRSEDTAMYYCARGLWGYYALDYWGQGTSVTVSS
VL: QIVLIQSPAIMSASPGEKVTMTCSASSSVSYMYWYQQKPGSSPRLLIYDTSNLASGVPVRFSGSGSGTSYSLTISRMEAEDAATYYCQQWSGYPYTFGGGTKLEIK
B. Top Biomarkers in Males, direction of change in suicidality I, AP/2
  IL6 modulated by drug in opposite direction to suicide: siltuximab

B2: Siltuximab (antibody, chains of the INN, looked up, V domains shown)
VH: EVQLVESGGKLLKPGGSLKLSCAASGFTFSSFAMSWFRQSPEKRLEWVAEISSGGSYTYYPDTVTGRFTISRDNAKNTLYLEMSSLRSEDTAMYYCARGLWGYYALDYWGQGTSVTVSS
VL: QIVLIQSPAIMSASPGEKVTMTCSASSSVSYMYWYQQKPGSSPRLLIYDTSNLASGVPVRFSGSGSGTSYSLTISRMEAEDAATYYCQQWSGYPYTFGGGTKLEIK
Biomarker IL6 (interleukin 6)
  Step 6 Drugs that Modulate the Biomarker in Opposite Direction to Suicide: Siltuximab

B3: certolizumab (antibody, chains of the INN, looked up, V domains shown)
VH: EVQLVESGGGLVQPGGSLRLSCAASGYVFTDYGMNWVRQAPGKGLEWMGWINTYIGEPIYADSVKGRFTFSLDTSKSTAYLQMNSLRAEDTAVYYCARGYRSYAMDYWGQGTLVTVSS
VL: DIQMTQSPSSLSASVGDRVTITCKASQNVGTNVAWYQQKPGKAPKALIYSASFLYSGVPYRFSGSGSGTDFTLTISSLQPEDFATYYCQQYNIYPLTFGQGTKVEIK
D. Top Biomarkers in Bipolar Disorder, direction of change in suicidality (I) DE/1, (I) AP/1
  TNF modulated by drug in opposite direction to suicide: certolizumab,

B4: CAT-354 (antibody, chains of the INN, looked up, V domains shown)
VH: QVQLVQSGAEVKKPGASVKVSCKASGYTFTNYGLSWVRQAPGQGLEWMGWISANNGDTNYGQEFQGRVTMTTDTSTSTAYMELRSLRSDDTAVYYCARDSSSSWARWFFDLWGRGTLVTVSS
VL: SYVLTQPPSVSVAPGKTARITCGGNIIGSKLVHWYQQKPGQAPVLVIYDDGDRPSGIPERFSGSNSGNTATLTISRVEAGDEADYYCQVWDTGSDPVVFGGGTKLTVL
Biomarker IL13 (interleukin 13)
  Step 6 Drugs that Modulate the Biomarker in Opposite Direction to Suicide: CAT-354
